US7968081B2, “Peptide for diagnosing, preventing and treating atherosclerosis and uses thereof” (Kyungpook National University Industry—Academic Cooperation …, priority 2007, dated 2011)
Ends that are not written are not given here. * marks the point of attachment. FITC = O=C1OC2(c3ccc(O)cc3Oc3cc(O)ccc32)c2ccc(NC(=S)*)cc21

Legend:
IL-4R [1] = molecular target: T1, IL-4R (Mus musculus, UniProt P16382); assay: Histological distribution of peptide and IL-4R in atherosclerotic plaque tissues; type: in vivo, mice; conditions: 50 μM final concentration in blood, circulation 15 min; IL-4R antibody staining
T1 construct: from tissue; host or cells: aorta / atherosclerotic plaque of Ldlr-/- mice
T1 sequence (P16382 26-810): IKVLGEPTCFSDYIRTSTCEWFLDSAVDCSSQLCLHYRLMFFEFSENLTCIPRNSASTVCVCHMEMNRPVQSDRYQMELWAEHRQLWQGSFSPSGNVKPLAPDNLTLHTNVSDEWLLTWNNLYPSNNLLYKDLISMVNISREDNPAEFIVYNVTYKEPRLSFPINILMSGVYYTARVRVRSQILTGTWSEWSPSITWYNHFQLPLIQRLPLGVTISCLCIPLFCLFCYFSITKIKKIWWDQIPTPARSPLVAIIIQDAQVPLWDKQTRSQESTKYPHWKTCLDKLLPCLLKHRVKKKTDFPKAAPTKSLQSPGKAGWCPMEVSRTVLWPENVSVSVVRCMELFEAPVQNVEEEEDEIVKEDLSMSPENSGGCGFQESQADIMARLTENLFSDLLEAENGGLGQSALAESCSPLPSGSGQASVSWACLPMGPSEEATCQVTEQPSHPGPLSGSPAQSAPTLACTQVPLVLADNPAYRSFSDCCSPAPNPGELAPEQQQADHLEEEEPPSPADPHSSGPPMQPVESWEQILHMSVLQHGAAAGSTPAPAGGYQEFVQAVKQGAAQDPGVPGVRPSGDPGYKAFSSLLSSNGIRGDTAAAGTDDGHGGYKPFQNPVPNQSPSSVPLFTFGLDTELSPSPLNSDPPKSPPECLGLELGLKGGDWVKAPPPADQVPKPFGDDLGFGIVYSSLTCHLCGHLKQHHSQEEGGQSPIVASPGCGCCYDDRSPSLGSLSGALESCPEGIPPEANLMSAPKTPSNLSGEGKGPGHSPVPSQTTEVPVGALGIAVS
Procedure: In order to ascertain a receptor that binds to the peptide of the present invention, binding of the peptide was examined for various receptors. Out of those receptors, the results for IL-4R are as follows. First, fluorescein (FITC)-conjugated peptide of the present invention at a final concentration of 50 μM was injected into the blood of experimental animals, followed by circulation for 15 min. Thereafter, the aortae were removed from animals, and a frozen section slide was prepared. Then, the tissue section was stained by reaction of the section with antibodies (1:200 dilution, BD, USA) directed against IL-4R, at room temperature for 1 hour. In order to stain the tissue nuclei, DAPI was treated on the slide which was then examined under a fluorescence microscope (Joshi et al., Cancer Research, 61:8058-8061, 2001).

[2] = test system: atherosclerotic plaque tissues; assay: In vivo atherosclerotic targeting of fluorescent dye-conjugated peptide (fluorescence microscopy of frozen sections); conditions: atherosclerosis-induced mice, circulation 15 min
Excerpt: C57BL/6 mice (Ldlr−/−) into which deficiency of a low-density lipoprotein (LDL) receptor was introduced by a genetic engineering technique were fed daily for 10 weeks with 3 g of high-cholesterol diet, thereby inducing atherosclerosis in animals. The high-cholesterol diet was a special animal feed containing 1.25% cholesterol, 15% fat and 0.5% cholate (Oriental Yeast Co., Japan).
Here, the peptide was synthesized by tagging an N-terminus of the peptide with FITC (fluorescein isothiocyanate) as a green fluorescent dye. The synthesized FITC-CRKRLDRNC peptide and a control peptide (FITC-NSSVDK) at final blood concentrations of 50 μM were injected into the atherosclerosis-induced mice via the left ventricle of animals, followed by circulation for 15 min. Thereafter, the aortae were removed from each mouse, and frozen sections were prepared, followed by Oil Red O (fat marker, Sigma-Aldrich, USA) staining or vWF (vascular endothelial cell marker, 1:5000 dilution, Abcam, USA) and Mac-3 (macrophage marker, 1:50 dilution, BD, USA) staining (Matter et al., Circulation Research, 95:1225-1233, 2004). In order to stain nuclei in tissues, a mounting medium containing a nuclear staining dye, 4′,6-diamidino-2-phenylindole (DAPI) (manufactured by Molecular Probe, USA) was treated on a slide, according to a conventional method known in the art, followed by fluorescence microscopic examination.

IL-4R [3] = molecular target: T2, IL-4R (Homo sapiens, UniProt P24394); assay: Bindability of peptide to IL-4R-expressing CHO-K1 cells (fluorescence microscopy); type: binding; conditions: 10 μM peptide, room temperature, 1 hour
T2 sequence (P24394 26-825): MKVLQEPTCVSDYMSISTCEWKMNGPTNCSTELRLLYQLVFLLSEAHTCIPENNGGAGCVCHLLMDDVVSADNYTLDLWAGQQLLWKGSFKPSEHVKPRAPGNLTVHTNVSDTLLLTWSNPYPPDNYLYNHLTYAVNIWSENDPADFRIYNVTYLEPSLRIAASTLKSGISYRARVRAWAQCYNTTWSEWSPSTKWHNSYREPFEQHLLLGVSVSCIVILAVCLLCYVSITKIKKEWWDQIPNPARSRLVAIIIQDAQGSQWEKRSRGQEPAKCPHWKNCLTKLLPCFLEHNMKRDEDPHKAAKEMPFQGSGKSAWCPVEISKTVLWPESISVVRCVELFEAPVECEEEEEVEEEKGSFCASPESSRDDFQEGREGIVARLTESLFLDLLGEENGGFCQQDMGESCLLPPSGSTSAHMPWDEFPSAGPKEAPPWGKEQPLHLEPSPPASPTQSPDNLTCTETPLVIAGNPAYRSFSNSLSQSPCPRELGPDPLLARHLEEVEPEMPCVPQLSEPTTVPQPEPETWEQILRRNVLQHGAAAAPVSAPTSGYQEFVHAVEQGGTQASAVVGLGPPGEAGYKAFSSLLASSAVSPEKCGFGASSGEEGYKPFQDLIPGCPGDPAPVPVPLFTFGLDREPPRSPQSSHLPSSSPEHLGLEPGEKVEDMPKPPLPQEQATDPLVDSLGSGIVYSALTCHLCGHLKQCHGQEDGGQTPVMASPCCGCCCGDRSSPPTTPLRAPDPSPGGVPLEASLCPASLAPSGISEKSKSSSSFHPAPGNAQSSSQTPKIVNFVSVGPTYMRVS
Excerpt: In order to further confirm roles of IL-4R as the receptor for the peptide of the present invention, a plasmid capable of expressing IL-4R (Cat. #TC119877, Origene, USA) was introduced into IL-4R-deficient CHO-K1 cells according to a conventional method known in the art, followed by expression of IL-4R, and binding of IL-4R with the peptide of the present invention was examined.
The cells were stained with antibodies (1:200 dilution) directed against. IL-4R and cell nuclei were stained with DAPI, followed by fluorescence microscopic examination. As a result, a large amount of IL-4R (red fluorescence) was present on the cell surface (FIG. 6B). Next, CHO-K1 and CHO-K1/IL-4R cells were reacted with 10 μM of the FITC-C-RKRLDRNC peptide at room temperature for 1 hour.

IL-4R [4] = molecular target: T2, IL-4R; assay: Bindability of peptide to HT-1376 cells with inhibited expression of IL-4R (siRNA); type: binding; parameters: HT-1376 cells that essentially show constitutive expression of IL-4R; endogenous in cells; host or cells: HT-1376
Procedure: Silencing RNA for IL-4R (Cat. #16708A, Ambion, USA) was introduced into HT-1376 cells that essentially show constitutive expression of IL-4R, according to a conventional method known in the art, and treated for 24 hours to thereby result in substantially no expression of IL-4R, followed by evaluation of peptide binding. More specifically, 10 nM of IL-4R silencing RNA synthesized by the manufacturer was mixed with a siPORT™ NeoFX™ lipid transfection agent (Ambion, USA), and the mixture was treated for 24 hours on HT-1376 cells grown in a 4-well chamber slide, such that IL-4R silencing RNA is incorporated into the cells. Thereafter, the culture medium was replaced with one containing 10% bovine serum and the cells were recovered for 24 hours. After staining of cells with IL-4R antibodies and nuclear DAPI staining under the same conditions as in FIG. 6, a cellular expression level of IL-4R was examined. After IL-4R staining, the FITC-CRKRLDRNC peptide was reacted with the cells under the same conditions as in FIG. 6, and a binding degree of the peptide was measured.

Substance: FITC-CRKRLDRNC ({FITC}-CRKRLDRNC; cysteine pairing not given here) [FITC-CRKRLDRNC peptide, called the peptide of the present invention in b132]
- position of peptide (green fluorescence) relative to IL-4R (red fluorescence) in atherosclerotic plaque tissues (IL-4R [1]): almost identically positioned
- peptide detection in cerebral tissues ([2]; 50 μM): not detected
- peptide detection in pulmonary tissues ([2]; 50 μM): not detected
- peptide found in aortic atherosclerotic plaque tissues (green fluorescence) ([2]; final blood concentration 50 μM via left ventricle): more targeted in plaque tissues
- binding to CHO-K1/IL-4R cells (IL-4R-expressing) (IL-4R [3]): green fluorescence due to the peptide
- binding to IL-4R-deficient CHO-K1 cells (IL-4R [3]): no fluorescence arising from the peptide
- binding to HT-1376/siIL-4R cells (IL-4R silencing RNA-treated) (IL-4R [4]; same conditions as in FIG. 6): substantially no binding
- binding to mock silencing RNA-treated HT-1376 cells (IL-4R [4]; same conditions as in FIG. 6): good bindability
- binding to HT-1376 cells (constitutive expression of IL-4R) (IL-4R [4]; same conditions as in FIG. 6 (10 μM, room temperature, 1 hour)): active binding
